The values below come from PMC3684423 (Structure (London, England : 1993), 2012).

Where no end group is shown, it is not given here. [ ]: non-standard residue; d: D form. pT = C[C@@H](OP(=O)(O)O)[C@H](N)C(=O)O

Assay [1] has as its target T1, N-terminal Smac/DIABLO(1–15) peptide.
T1 sequence (Q9NR28 22-36, species assumed, looked up): LCVPVVANFKKRCFS
Description: ITC. (In general: Isothermal titration calorimetry measures the heat released or taken up as one component is titrated into another.)

Assay [2] addresses Survivin 1-142 (UniProt O15392). Description: peptide-bead pull-down, Coomassie stain.
In assay [3] the target is Survivin H80A mutant (human, UniProt O15392 1-142, H80A). Description: ITC.
For assay [4], the target named is Survivin E63A mutant (human, UniProt O15392 1-142, E63A). Description: ITC.
The target in assay [5] is Survivin L64A mutant (human, UniProt O15392 1-142, L64A). In words: ITC.
For assay [6], the target named is Survivin W67A mutant (human, UniProt O15392 1-142, W67A). Description: ITC.
Survivin W67A mutant, sequence (O15392 whole entry W67A): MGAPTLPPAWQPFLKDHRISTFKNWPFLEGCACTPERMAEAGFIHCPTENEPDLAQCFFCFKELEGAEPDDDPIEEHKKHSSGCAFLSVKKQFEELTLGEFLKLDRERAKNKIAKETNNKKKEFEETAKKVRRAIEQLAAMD

human Survivin (wild type), sequence (O15392 whole entry): as the sequence (O15392 whole entry W67A) above, with A67W counted along it
Survivin H80A mutant, sequence (O15392 whole entry H80A): as the sequence (O15392 whole entry W67A) above, with A67W, H80A counted along it
Survivin E63A mutant, sequence (O15392 whole entry E63A): as the sequence (O15392 whole entry W67A) above, with E63A, A67W counted along it
Survivin L64A mutant, sequence (O15392 whole entry L64A): as the sequence (O15392 whole entry W67A) above, with L64A, A67W counted along it

In assay [1], “Survivin(K62Y/H80W) double mutant (from UniProt O15392 1-142) (natural protein)” gave a Kd of 19.8 µM and a dH of -4.44 kcal/mol.

On to “histone H3 (from UniProt P68431) H3T3ph peptide beads”, for which the “binding against the reference” value in assay [2] (reference: unmodified H3 peptide beads, sites T3) is “same”.

Regarding “histone H3 (from UniProt P68431) S10ph H3 peptide beads (T3 state not stated)”, the “binding against the reference” value in assay [2] (reference: H3 peptide beads without S10ph, sites S10) is recorded as “same”.

In assay [1], “human Survivin (wild type) (from UniProt O15392 1-142) (natural protein)” registered a Kd of 121 µM and a dH of -3.48 kcal/mol.

Regarding AR[pT]KQTARKSTGGKA (peptide, UniProt P68431 2-16, looked up) [H3(1–15)T3ph peptide], the Kd in assay [3], in assay [4], in assay [5] and in assay [6] was over 200 µM throughout.

In general, Kd refers to the constant that tells how readily two partners part at equilibrium.
